Results reported in article PMC4215182.

Assays:
[1] = target: T1, CPSF30 (within CPSF complex) (human? (HEK293), UniProt O95639 1-269); assay: UV cross-linking
[2] = target: T2, Wdr33 (within CPSF complex) (human? (HEK293), UniProt Q9C0J8 1-1336); assay: UV cross-linking
T2 sequence: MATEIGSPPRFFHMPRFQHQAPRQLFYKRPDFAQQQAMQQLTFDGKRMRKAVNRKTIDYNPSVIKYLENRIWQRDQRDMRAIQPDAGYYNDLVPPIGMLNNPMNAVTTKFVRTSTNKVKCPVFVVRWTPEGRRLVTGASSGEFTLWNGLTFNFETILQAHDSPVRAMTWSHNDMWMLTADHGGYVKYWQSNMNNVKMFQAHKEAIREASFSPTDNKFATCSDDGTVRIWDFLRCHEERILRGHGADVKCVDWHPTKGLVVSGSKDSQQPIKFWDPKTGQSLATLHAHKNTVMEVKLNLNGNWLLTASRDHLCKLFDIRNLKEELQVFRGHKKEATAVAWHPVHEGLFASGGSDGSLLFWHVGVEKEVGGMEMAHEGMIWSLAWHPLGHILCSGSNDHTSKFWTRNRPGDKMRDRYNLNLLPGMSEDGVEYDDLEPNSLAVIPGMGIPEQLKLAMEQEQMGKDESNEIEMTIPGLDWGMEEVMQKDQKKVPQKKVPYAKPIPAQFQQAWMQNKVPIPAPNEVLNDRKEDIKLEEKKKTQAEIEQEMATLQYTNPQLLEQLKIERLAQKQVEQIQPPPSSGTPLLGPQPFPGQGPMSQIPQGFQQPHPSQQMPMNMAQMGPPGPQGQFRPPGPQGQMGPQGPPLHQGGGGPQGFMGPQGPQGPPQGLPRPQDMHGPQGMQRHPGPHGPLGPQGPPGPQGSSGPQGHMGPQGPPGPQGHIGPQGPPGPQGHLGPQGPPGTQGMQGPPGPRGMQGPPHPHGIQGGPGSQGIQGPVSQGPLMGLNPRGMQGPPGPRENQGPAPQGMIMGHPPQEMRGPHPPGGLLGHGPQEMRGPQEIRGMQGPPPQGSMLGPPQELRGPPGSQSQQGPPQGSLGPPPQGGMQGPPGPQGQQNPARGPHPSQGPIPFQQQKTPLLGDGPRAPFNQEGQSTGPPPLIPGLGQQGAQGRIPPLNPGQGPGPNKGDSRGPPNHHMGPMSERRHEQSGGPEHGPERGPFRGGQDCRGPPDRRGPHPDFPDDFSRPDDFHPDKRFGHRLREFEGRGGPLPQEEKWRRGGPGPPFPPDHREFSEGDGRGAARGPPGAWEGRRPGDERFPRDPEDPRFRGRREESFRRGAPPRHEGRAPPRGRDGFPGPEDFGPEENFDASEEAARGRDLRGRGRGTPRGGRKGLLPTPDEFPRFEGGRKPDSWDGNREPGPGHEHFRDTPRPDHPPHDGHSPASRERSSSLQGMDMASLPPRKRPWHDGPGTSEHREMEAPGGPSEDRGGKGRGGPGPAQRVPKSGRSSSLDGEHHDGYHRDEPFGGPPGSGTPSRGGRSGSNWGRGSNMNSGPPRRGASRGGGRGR

[3] = target: T2, Wdr33 (within CPSF complex); assay: UV cross-linking, RNase, IP
[4] = target: T3, Fip1 (within CPSF complex) (human? (HEK293), UniProt Q6UN15 1-594); assay: UV cross-linking, RNase I, IP
T3 sequence: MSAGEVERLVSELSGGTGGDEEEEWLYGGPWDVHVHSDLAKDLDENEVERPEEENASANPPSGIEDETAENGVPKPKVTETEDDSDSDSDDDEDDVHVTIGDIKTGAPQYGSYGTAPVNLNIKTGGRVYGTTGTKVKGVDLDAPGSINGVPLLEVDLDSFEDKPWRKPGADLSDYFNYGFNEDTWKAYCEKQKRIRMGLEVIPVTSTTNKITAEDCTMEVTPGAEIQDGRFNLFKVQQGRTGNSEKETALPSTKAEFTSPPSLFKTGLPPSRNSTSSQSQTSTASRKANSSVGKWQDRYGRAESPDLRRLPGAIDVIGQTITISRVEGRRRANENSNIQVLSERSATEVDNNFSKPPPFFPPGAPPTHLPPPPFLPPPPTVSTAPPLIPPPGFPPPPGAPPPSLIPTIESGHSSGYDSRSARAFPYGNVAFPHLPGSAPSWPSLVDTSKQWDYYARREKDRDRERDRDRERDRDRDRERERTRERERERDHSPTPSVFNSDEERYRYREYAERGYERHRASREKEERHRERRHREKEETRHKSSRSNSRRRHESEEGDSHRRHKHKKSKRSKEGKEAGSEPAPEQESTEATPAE

[5] = target: T1, CPSF30 (within CPSF complex); assay: UV cross-linking, RNase, IP
[6] = target: CPSF complex (CPSF73-3xFlag immunopurified) (human? (HEK293), UniProt Q10570;Q9C0J8;Q9P2I0;Q9UKF6;Q6UN15;O95639;Q92797 …); assay: EMSA
[7] = target: CPSF complex with HA-CPSF30 full length (human? (HEK293), UniProt Q10570;Q9C0J8;Q9P2I0;Q9UKF6;Q6UN15;O95639-2;Q92797 …); assay: UV cross-linking
[8] = target: Flag-CPSF30 (baculovirus) (UniProt O95639-2 1-244); assay: UV cross-linking
Flag-CPSF30 full length = Flag-CPSF30 full length (UniProt O95639-2 1-244); assay: UV cross-linking

## AUGUACUAGGAGACACAAUAACGGCAAUGUUUUUAUUUGUA (ssRNA) [L3 mutant (AAUAAC)]
[1]
  binding result: no binding
[2]
  binding result: no binding

## AUGUACUAGGAGACACAAUAAAGGCAAUGUUUUUAUUUGUA (ssRNA) [L3 wild type]
[3]
  binding result: binds
[4]
  binding result: binds
[5]
  binding result: binds

## CUGCAAUAAACAAGUUAA (ssRNA) [SVL wild type]
[6]
  binding result: binds
[7]
  binding result: binds
[8]
  binding result: binds
Flag-CPSF30 full length
  binding result: binds

## CUGCAAGAAACAAGUUAA (ssRNA) [SVL mutant (AAGAAA)]
[6]
  binding result: no binding
